# Experimental data as given in article PMC10758017.
# T1: TGFβRI/TGFβRII receptor complex (mouse (endogenous in MFB-F11)) (UniProt Q64729)
# T1 sequence 1: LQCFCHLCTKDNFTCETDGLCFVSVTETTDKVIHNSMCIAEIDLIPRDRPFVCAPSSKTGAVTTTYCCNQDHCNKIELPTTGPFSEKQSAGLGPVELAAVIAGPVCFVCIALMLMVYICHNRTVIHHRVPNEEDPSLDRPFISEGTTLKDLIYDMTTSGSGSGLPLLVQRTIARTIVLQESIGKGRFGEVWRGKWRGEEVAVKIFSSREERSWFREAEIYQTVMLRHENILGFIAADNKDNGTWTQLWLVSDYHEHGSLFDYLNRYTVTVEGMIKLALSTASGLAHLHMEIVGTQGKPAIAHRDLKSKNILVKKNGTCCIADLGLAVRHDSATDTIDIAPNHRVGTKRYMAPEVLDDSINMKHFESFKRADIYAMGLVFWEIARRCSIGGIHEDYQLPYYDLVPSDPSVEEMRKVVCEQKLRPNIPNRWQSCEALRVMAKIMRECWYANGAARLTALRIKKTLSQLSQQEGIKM
# T1 sequence 2: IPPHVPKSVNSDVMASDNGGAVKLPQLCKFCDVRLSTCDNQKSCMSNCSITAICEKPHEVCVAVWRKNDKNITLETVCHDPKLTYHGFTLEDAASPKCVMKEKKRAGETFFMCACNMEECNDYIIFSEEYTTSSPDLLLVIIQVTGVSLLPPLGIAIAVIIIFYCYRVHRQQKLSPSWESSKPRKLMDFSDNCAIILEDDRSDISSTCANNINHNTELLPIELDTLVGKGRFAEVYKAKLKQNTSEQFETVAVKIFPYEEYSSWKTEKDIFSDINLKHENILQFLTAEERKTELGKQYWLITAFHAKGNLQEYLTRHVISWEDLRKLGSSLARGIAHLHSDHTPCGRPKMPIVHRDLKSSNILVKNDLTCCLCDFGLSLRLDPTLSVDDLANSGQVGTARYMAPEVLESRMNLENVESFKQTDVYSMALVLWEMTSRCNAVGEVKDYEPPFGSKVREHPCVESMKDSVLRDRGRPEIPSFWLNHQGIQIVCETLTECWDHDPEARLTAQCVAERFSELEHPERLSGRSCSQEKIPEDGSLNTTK
# Molecular target: T1, TGFβRI/TGFβRII receptor complex (mouse (endogenous in MFB-F11))
row,"Smad2 mRNA, ddCt (qRT-PCR), IP at 50 μM against the reference inhibitor SB-525334 at 50 nM",Binder
1,-12.2,LDAAYCFRN [peptide inhibitor 1.2 …]
2,-10.5,DAAYCFRNV [peptide inhibitor 1.3 …]
3,-2.4,AYCFRNVQD [peptide inhibitor 1.5 …]

# Molecular target: T1, TGFβRI/TGFβRII receptor complex (mouse (endogenous in MFB-F11))
# Remark: another data set of the same source
row,"Smad4 mRNA, ddCt (qRT-PCR), IP at 50 μM against the reference inhibitor SB-525334 at 50 nM",Binder
1,-11.3,LDAAYCFRN [peptide inhibitor 1.2 …]
2,-9.3,DAAYCFRNV [peptide inhibitor 1.3 …]
3,0.9,AYCFRNVQD [peptide inhibitor 1.5 …]

# Molecular target: T1, TGFβRI/TGFβRII receptor complex (mouse (endogenous in MFB-F11))
# Remark: another data set of the same source
row,"Smad3 mRNA, ddCt (qRT-PCR), IP at 50 μM against the reference inhibitor SB-525334 at 50 nM",Binder
1,-11.9,LDAAYCFRN [peptide inhibitor 1.2 …]
2,-9.5,DAAYCFRNV [peptide inhibitor 1.3 …]
3,0.2,AYCFRNVQD [peptide inhibitor 1.5 …]

# Molecular target: T1, TGFβRI/TGFβRII receptor complex (mouse (endogenous in MFB-F11))
# Remark: another data set of the same source
row,"Jun N-terminal kinase (JNK1) mRNA, ddCt (qRT-PCR), IP at 50 μM against the reference inhibitor SB-525334 at 50 nM",Binder
1,-15.3,LDAAYCFRN [peptide inhibitor 1.2 …]
2,-13.4,DAAYCFRNV [peptide inhibitor 1.3 …]
3,-0.1,AYCFRNVQD [peptide inhibitor 1.5 …]
